Results taken from PMC8857485, “Prostate secretory protein 94 inhibits sterol binding and export by the mammalian CAP protein CRISP2 in a calcium-sensitive manner” (The Journal of Biological Chemistry, 2022).

T1: CRISP2 (cysteine-rich secretory protein 2), C-terminal polyhistidine tag (human, UniProt P16562 22-243, RED-tris-NTA fluorescent label on the His tag)
T1 construct: also called Tpx-1; testis-specific protein 1; source: E. coli BL21, purified (nickel-NTA); not shown: polyhistidine, C-terminal, kept
T1 sequence (looked up): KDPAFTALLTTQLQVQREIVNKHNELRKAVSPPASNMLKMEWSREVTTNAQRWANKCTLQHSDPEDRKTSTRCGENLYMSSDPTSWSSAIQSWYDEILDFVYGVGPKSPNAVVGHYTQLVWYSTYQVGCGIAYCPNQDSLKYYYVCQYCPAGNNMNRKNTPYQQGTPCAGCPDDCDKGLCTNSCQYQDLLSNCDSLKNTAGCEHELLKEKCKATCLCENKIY

T2: Pry1 (pathogen related in yeast 1), C-terminal polyhistidine tag (S. cerevisiae, UniProt P47032 20-299, RED-tris-NTA fluorescent label on the His tag)
T2 construct: Pry1, S. cerevisiae CAP family member; source: E. coli BL21, purified (nickel-NTA); not shown: polyhistidine, C-terminal, kept
T2 sequence (looked up): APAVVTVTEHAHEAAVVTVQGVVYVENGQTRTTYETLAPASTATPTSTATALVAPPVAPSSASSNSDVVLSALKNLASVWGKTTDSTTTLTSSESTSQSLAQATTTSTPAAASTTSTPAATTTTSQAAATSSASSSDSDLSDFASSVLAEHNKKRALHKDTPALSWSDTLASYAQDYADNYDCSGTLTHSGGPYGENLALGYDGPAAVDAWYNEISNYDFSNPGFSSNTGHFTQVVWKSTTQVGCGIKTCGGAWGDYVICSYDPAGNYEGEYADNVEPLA

T3: CRISP2 N97P, His-tagged (human, UniProt P16562 22-243, N97P, RED-tris-NTA fluorescent label on the His tag)
T3 construct: CRISP2 with the point mutation N97P in the β2-strand; Same construct as m4 with the mutation; source: E. coli, purified; not shown: polyhistidine, C-terminal, kept
T3 sequence (looked up): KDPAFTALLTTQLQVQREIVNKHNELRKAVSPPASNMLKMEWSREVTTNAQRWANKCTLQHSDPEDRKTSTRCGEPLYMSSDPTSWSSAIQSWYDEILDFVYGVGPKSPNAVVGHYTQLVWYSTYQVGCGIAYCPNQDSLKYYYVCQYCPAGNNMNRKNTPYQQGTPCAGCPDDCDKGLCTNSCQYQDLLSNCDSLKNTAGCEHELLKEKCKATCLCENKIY

T4: CRISP3 (cysteine-rich secretory protein 3), C-terminal polyhistidine tag (human, UniProt P54108 21-245, RED-tris-NTA fluorescent label on the His tag)
T4 construct: CRISP3, human; pET22b; source: E. coli, inclusion bodies, purified under denaturing conditions, renatured (nickel-NTA); not shown: polyhistidine, C-terminal, kept
T4 sequence (looked up): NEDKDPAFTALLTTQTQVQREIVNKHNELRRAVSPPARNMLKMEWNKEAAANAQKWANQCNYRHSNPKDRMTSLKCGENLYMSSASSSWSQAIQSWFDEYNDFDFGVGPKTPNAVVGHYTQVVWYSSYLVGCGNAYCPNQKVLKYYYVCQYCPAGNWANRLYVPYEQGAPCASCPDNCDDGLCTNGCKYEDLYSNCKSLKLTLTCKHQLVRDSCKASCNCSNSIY

T5: CRISP2 L98G, His-tagged (human, UniProt P16562 22-243, L98G, RED-tris-NTA fluorescent label on the His tag)
T5 construct: CRISP2 with the point mutation L98G in the β2-strand; Same construct as m4 with the mutation; source: E. coli, purified; not shown: polyhistidine, C-terminal, kept
T5 sequence (looked up): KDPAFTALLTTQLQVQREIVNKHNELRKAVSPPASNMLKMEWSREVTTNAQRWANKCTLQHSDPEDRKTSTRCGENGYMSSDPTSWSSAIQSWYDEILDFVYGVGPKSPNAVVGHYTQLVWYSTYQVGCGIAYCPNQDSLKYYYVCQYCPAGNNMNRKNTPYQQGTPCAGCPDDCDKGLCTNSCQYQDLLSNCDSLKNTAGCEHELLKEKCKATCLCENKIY

T6: CRISP2 Y99P, His-tagged (human, UniProt P16562 22-243, Y99P, RED-tris-NTA fluorescent label on the His tag)
T6 construct: CRISP2 with the point mutation Y99P in the β2-strand; Same construct as m4 with the mutation; source: E. coli, purified; not shown: polyhistidine, C-terminal, kept
T6 sequence (looked up): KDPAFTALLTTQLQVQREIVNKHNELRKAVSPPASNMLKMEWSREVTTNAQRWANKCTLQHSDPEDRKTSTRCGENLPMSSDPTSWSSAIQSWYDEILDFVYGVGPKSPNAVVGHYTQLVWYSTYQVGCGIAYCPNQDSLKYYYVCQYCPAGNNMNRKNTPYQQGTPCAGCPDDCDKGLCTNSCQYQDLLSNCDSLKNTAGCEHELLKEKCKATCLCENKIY

T7: CRISP2 N97P, His-tagged (human, UniProt P16562 22-243, N97P, RED-tris-NTA fluorescent label on the His tag)
T7 sequence: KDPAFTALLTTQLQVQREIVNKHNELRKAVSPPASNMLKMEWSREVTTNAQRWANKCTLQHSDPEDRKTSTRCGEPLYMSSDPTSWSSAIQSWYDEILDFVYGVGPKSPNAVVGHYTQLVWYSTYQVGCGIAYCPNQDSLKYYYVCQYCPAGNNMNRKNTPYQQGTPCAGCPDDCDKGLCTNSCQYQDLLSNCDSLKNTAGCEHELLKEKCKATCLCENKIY

T8: CRISP2 Y99P, His-tagged (human, UniProt P16562 22-243, Y99P, RED-tris-NTA fluorescent label on the His tag)
T8 sequence: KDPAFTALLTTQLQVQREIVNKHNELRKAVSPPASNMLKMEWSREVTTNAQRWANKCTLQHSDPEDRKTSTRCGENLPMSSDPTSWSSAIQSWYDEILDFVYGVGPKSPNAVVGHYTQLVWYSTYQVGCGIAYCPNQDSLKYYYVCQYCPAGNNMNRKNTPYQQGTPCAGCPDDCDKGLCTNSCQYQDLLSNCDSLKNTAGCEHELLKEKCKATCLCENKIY

T9: CRISP2 L98G, His-tagged (human, UniProt P16562 22-243, L98G, RED-tris-NTA fluorescent label on the His tag)
T9 sequence: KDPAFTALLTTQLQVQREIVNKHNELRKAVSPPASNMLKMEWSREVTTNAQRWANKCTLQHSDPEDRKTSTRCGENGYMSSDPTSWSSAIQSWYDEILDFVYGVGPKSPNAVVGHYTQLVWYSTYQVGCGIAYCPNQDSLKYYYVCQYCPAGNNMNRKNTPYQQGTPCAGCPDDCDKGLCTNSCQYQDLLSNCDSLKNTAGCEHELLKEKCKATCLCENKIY

T10: CRISP2^N97P L98G (Homo sapiens, UniProt P16562, L98G/N97P)
T10 construct: made in house; host or cells: E. coli
T10 sequence (P16562 22-243 N97P/L98G): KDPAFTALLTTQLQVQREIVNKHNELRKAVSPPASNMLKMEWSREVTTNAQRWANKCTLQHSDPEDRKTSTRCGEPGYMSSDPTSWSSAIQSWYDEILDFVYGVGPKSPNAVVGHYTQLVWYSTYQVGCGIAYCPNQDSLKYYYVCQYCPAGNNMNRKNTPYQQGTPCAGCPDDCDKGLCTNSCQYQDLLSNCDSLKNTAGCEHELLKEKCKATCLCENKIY


Key:
[1] = target: T1, CRISP2 (cysteine-rich secretory protein …); test: MST; 100 nM CAP protein labelled with RED-tris-NTA on its His tag, serial dilution of unlabeled PSP94 or PSP94^F24G; 20 mM Tris pH 7.5, 30 mM NaCl, 0.05% Triton X-100; Monolith NT.115, 80% laser power; triplicates; conditions: both partners purified
[2] = target: T2, Pry1 (pathogen related in yeast 1), …; test: as above; conditions: both partners purified
[3] = target: T3, CRISP2 N97P, His-tagged; test: as above; conditions: both partners purified
[4] = target: T4, CRISP3 (cysteine-rich secretory protein …); test: as above; conditions: both partners purified
[5] = target: T5, CRISP2 L98G, His-tagged; test: as above; conditions: both partners purified
[6] = target: T6, CRISP2 Y99P, His-tagged; test: as above; conditions: both partners purified
[7] = target: T7, CRISP2 N97P, His-tagged; test: MST
[8] = target: T8, CRISP2 Y99P, His-tagged; test: MST
[9] = target: T9, CRISP2 L98G, His-tagged; test: MST
[10] = target: T10, CRISP2^N97P L98G; test: MST binding to CRISP2 double mutant N97P L98G; set-up: species or system mammalian; conditions: read-out: Kd, protein-protein interaction with CRISP2^N97P L98G
Description: Next, we generated all three double mutant combinations of CRISP2: N97P L98G, N97P Y99P, and L98G Y99P. These three double mutant versions of CRISP2 were again expressed as His-tagged proteins in E. coli and purified, and their capacity to bind sterols in the presence or absence of PSP94 was assessed by MST. […] The capacity of the CRISP2^L98G Y99P double mutant to bind sterols even in the presence of PSP94 was confirmed by the in vivo sterol export assay (Fig. 6, A and B). When expressed in yeast cells, the CRISP2^L98G Y99P double mutant was stably expressed and secreted as monitored by Western blotting (Fig. 6C).
MST experiments were performed to assess protein–protein, protein–lipid, and protein–calcium interactions using a Monolith NT.115 (Nanotemper Technologies). Proteins were labeled using the RED-tris-NTA His tag protein labeling kit. Labeled CAP proteins, 100 nM, were mixed with a serial dilution of unlabeled PSP94, PSP9^F24G, cholesterol sulfate, or calcium chloride, prepared in binding buffer (20 mM Tris pH 7.5, 30 mM NaCl, 0.05% Triton X-100). Samples were loaded into MST standard capillaries, and MST measurements were performed using an 80% laser power setting. The dissociation constant Kd was obtained by plotting the normalized fluorescence (Fnorm) against the logarithm of ligand concentration. […]

[11] = system: fatty acid export by CAP family members (CRISP2); test: Fatty acid export assay in yeast; assay type: cell-based, Saccharomyces cerevisiae; conditions: co-expression with CRISP2 in faa1Δ faa4Δ pry1Δ pry3Δ yeast
Excerpt: We and others have previously shown that CAP proteins can bind eicosanoids and free fatty acids at a second lipid-binding site that is independent of the sterol-binding site ([30], [31]). To test whether PSP94 affects fatty acid binding by the CAP domain, we examined whether coexpression of PSP94 with CRISP2 affects fatty acid export from mutant cells lacking the two acyl-CoA synthases Faa1 and Faa4 and two of the three yeast CAP domain proteins, Pry1 and Pry3.
To analyze the CRISP2-dependent export of fatty acids, cells were grown overnight and the supernatant of 5 A600nm units of yeast cells was collected and dried in a freeze dryer. Fatty acid methyl esters (FAMEs) were produced by incubating the dried fractions at 85 °C for 45 min in 1 ml of methanol–sulfuric acid (5% v/v) supplemented with butylated hydroxytoluene (0.01% w/v). The FAMEs were extracted in a mixture containing 1.5 ml of NaCl (0.9% w/v) and 2 ml of hexane, and the upper phase was collected. FAMEs were then resuspended in heptane and separated on an Agilent 7890A gas chromatograph equipped with a DB-23 capillary column (30 m × 0.25 mm × 0.25 μm) (Agilent Technologies) and quantified relative to an internal standard (C17:0, 10 μg) as described ([31]).

Molecule | Kd [1] | Kd [2] | binding result [3] | binding result [4] | binding result [5] | binding result [6] | Kd [7] | Kd [8] | Kd [9] | Kd [10] | effect on fatty acid export [11]
prostate secretory protein of 94 amino acids (PSP94), C-terminal polyhistidine tag (natural protein, human, UniProt P08118 21-114, looked up, PSP94 (β-microseminoprotein), human; also called β-microseminoprotein; MSP; source: E. coli BL21, purified (nickel-NTA)) SCYFIPNEGVPGDSTRKCMDLKGNKHPINSEWQTDNCETCTCYETEISCCTLVSTPVGYDKDNCQRIFKKEDCKYIVVEKKDPKKTCSVSEWII | 6 nM | 70 nM | binds | binds | binds | binds | 8.1 nM | 9.3 nM | 8.6 nM | – | –
PSP94: prostate secretory protein of 94 amino acids, His-tagged, purified from E. coli; or expressed in yeast (protein, left off: polyhistidine, C-terminal, state not stated, prostate secretory protein of 94 amino acids, His-tagged, purified from E. coli; or expressed in yeast) SCYFIPNEGVPGDSTRKCMDLKGNKHPINSEWQTDNCETCTCYETEISCCTLVSTPVGYDKDNCQRIFKKEDCKYIVVEKKDPKKTCSVSEWII | – | – | – | – | – | – | – | – | – | 4 ± 1.8 nM | does not affect fatty acid binding and export
